Experimental data taken from patent US20240116985A1 (published 2024).
Values belong to the binder of their own block, whether it stands above or below them. Starred links: 1 amine or outer side, 2 acyl side, 3 side chain; linkers in the order of their positions; H or OH if unused. Positions of bridges follow the written chain, without caps; N, C: chain ends. Non-standard residues stand in square brackets, D forms with d. Primed or numbered codes have the meaning given here. B5(10) = 2-amino-2-(pent-4-en-1-yl)hept-6-enoic acid, bis(4-pentenyl)glycine, stitching residue bearing both staples, C=CCCCC(CCCC=C)(N[*:1])C(=O)[*:2]; PyrS2″ = (S)-3-amino-1-((pent-4-en-1-yloxy)carbonyl)pyrrolidine-3-carboxylic acid (stapling residue), C=CCCCOC(=O)N1CC[C@@](N[*:1])(C(=O)[*:2])C1; TfeGA = (S)-2-amino-3-((carboxymethyl)(2,2,2-trifluoroethyl)amino)propanoic acid, O=C([C@H](CN(CC(=O)[*:3])CC(F)(F)F)N[*:1])[*:2]; PyrS2 = (S)-3-amino-1-((pent-4-en-1-yloxy)carbonyl)pyrrolidine-3-carboxylic acid, C=CCCCOC(=O)N1CC[C@@](N[*:1])(C(=O)[*:2])C1; B5(3) = 2,2-bis(4-pentenyl)glycine (stitching residue), C=CCCCC(CCCC=C)(N[*:1])C(=O)[*:2]; Phe(3-COOH) = N[C@@H](Cc1cccc(C(=O)O)c1)C(=O)O; Phe(2-CF3) = N[C@@H](Cc1ccccc1C(F)(F)F)C(=O)O; Phe(2-Cl) = N[C@@H](Cc1ccccc1Cl)C(=O)O; Bta = N[C@@H](Cc1csc2ccccc12)C(=O)O; αAllylPro = C=CC[C@@]1(C(=O)O)CCCN1; tBuAla = CC(C)(C)C[C@H](N)C(=O)O

Experiments:
[1] = target: T1, full-length beta-Catenin (Uniprot ID P35222) (Homo sapiens (Human), UniProt P35222 1-781); test: fluorescence polarization competition; full-length beta-catenin + 5FAM-TCF4(10-53) probe
T1 construct: also called bCat; B-Catenin
T1 sequence: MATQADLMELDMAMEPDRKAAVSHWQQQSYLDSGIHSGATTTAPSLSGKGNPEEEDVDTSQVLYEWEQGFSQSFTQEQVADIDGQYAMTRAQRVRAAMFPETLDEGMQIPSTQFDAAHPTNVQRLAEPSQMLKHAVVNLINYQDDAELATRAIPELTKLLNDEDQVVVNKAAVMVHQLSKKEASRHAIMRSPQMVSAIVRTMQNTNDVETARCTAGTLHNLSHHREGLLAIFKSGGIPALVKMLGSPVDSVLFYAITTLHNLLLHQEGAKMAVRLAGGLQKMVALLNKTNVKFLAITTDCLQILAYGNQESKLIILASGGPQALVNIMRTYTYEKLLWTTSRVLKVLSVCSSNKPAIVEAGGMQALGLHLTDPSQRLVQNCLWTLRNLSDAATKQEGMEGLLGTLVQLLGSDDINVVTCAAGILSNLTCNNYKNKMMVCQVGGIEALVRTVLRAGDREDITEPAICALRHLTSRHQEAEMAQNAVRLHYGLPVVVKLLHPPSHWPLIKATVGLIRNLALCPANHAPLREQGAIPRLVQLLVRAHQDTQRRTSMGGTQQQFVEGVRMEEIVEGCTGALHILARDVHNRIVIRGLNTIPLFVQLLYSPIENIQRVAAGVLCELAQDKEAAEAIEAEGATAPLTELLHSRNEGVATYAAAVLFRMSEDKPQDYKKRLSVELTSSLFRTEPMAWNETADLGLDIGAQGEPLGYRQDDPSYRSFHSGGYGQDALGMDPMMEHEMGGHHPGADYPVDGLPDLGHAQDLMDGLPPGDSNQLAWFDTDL
Description: The plate was incubated protected from light for 60 minutes at 20° C. prior to read. Reads were performed on a CLARIOstar plate reader (BMG Labtech) in duplicate, and data were fitted to a 1:1 binding model with hill slope using an in-house script. All provided concentrations are final concentrations.

[2] = target: T2, beta-catenin in DLD1 TCF/LEF luciferase reporter cells (UniProt P35222 1-781); test: cell-based or functional assay
T2 sequence (looked up): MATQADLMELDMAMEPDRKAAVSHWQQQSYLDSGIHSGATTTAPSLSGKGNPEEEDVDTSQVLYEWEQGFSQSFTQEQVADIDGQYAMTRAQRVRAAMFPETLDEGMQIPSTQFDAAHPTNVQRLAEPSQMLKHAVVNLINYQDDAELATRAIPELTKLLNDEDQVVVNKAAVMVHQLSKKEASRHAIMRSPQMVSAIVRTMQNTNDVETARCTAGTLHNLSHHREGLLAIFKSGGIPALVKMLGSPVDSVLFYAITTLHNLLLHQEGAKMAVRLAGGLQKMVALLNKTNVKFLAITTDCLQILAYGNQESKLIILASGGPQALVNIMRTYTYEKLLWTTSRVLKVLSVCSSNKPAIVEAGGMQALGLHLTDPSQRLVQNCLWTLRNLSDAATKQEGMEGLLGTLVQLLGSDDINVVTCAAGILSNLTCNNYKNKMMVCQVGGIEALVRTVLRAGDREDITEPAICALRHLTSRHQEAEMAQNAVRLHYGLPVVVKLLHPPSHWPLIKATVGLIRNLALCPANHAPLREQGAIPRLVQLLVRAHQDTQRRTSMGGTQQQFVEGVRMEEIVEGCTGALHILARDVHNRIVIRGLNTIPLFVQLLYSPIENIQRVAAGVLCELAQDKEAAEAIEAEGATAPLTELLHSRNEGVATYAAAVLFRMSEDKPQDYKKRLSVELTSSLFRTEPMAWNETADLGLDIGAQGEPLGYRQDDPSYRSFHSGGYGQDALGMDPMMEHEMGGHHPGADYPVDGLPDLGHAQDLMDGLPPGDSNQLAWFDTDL

B-cat-Halo = target: T3, B-cat-Halo (UniProt P35222 1-781); test: cell-based or functional assay
T3 sequence (looked up): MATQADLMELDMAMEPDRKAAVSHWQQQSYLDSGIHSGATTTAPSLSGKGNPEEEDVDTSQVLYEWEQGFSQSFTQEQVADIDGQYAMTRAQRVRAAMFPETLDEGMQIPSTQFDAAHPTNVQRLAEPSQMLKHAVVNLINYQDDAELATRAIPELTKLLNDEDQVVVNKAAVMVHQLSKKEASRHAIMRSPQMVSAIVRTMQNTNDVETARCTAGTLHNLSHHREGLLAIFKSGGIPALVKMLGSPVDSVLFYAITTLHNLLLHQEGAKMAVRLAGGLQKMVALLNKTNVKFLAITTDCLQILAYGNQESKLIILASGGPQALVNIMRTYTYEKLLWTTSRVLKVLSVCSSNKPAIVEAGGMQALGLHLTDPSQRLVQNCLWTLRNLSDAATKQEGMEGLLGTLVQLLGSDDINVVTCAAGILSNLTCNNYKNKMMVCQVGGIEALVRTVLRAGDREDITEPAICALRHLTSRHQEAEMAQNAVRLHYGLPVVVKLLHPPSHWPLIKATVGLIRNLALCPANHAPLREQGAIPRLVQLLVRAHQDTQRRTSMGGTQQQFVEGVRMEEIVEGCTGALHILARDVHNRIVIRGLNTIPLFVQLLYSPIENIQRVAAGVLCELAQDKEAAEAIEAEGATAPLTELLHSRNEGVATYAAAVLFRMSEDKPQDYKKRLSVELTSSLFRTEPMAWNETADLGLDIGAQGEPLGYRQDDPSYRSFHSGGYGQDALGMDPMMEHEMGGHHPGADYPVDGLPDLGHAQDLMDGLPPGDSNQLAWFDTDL

EC50 [1]: 10 µM
B1: I-1287 (peptide)
peptide: Ac-[αAllylPro]NA[B5(10)]DTAAFL[PyrS2]F[Bta]Q-NH2
modifications: staple 1-4, 4-11; not fully specified; printed as Ac-PL3-Asn-Ala-B5-Asp-Thr-Ala-Ala-Phe-Leu-PyrS2-Phe-BztA-Gln-NH2

DLD1 4% Abs IC50 [2]: 1 µM
Binder: Ac-[αAllylPro]D[tBuAla][B5(3)]D[Phe(3-COOH)]AAFL[PyrS2″][Phe(2-CF3)][Bta]QLA-NH2 (staple 1-4, 4-11) [I-2378]

NanoBRET Abs IC50 (B-cat-Halo): 8.8 µM
Binder: Ac-[αAllylPro]D[tBuAla][B5(3)]D[TfeGA]AAFF[PyrS2″][Phe(2-Cl)][Bta]S-NH2 (staple 1-4, 4-11) [I-990]
